The values below come from patent publication US20240209099A1 (SUZHOU TRANSCENTA THERAPEUTICS, published 2024).

B1: 042 (mouse hybridoma antibody) (antibody, V domains shown)
VH: EVQLVESGGDLVKPGGSLKLSCTASGFSFSIYGMSWVRQTPDKRLEWVASISVGGSYTYYADSVEGRFTISRENAKNTLYLQMNSLKSEDTALYYCARELDGNYDYWGQGTSLTVSS
VL: DIVITQNELSNPVTFGESVSISCRSSKSLLYKDGKTYLNWFLQRPGQSPQLLIYLMSTRASGVSDRFSGSGSGTDFTLEISRVKAEDVGVYYCQQLVEYPFTFGSGTKLEIK
notes: Mouse antibody purified from hybridoma; also called mAb042; 8G11G1B2C6
B2: 54-H1L2 (humanized Mab54) (antibody, human IgG1, V domains shown)
VH: EVQLVESGGGLVKPGGSLKLSCAASGFTFSMYGMSWVRQTPGKRLEWVASISIGGSYTYYADSVKGRFTISRDNAKNTLYLQMNSLKAEDTAVYYCARELDGNYDYWGQGTTLTVSS
VL: B1 VL with N7T, E8P, N11L, F15P, S64P, E79K, K84E
notes: also called humanized 54 variant H1L2
B3: 54-H1L1 (humanized Mab54) (antibody, human IgG1, V domains shown)
VH: B2 VH
VL: B1 VL with N7D, N11L, E79K, K84E, V90I
notes: also called humanized 54 variant H1L1
B4: 54-H2L2 (humanized Mab54) (antibody, human IgG1, V domains shown)
VH: B2 VH with K19R, T40A, K87R
VL: B1 VL with N7T, E8P, N11L, F15P, S64P, E79K, K84E
notes: also called humanized 54 variant H2L2
B5: 002 (mouse hybridoma antibody) (antibody, V domains shown)
VH: QVQLQQSGPELVKPGASVKISCKASGYAFSSSWMNWVKQRPGEGLEWIGRIFPGDGDTYYNGKFQVKATLTADKSSSTAYMQLSSLTSEDSAVYFCAIFLDTSGRYVDYWGQGTTLTISS
VL: DIVMTQSHKFMSTSVGDRVSITCKASQDVNTAVAWYQQKPGQSPKLLIYSASYRYIGVPDRFTGSGSGTDFTFTISSVQSEDLTVYYCQQHYRAPLTFGSGTKLELK
notes: Mouse antibody purified from hybridoma; also called mAb002; 11B8
B6: 003 (mouse hybridoma antibody) (antibody, V domains shown)
VH: QVQLQQPGAELVKPGASVKMSCKASGYTFNTYWIMWVKQRPGQGLEWIGDIYPGTGSTNYNEKFKSKVTLTADTSSTTAYMQVSSLTSEDSAVYYCGRDSNPDYWGQGTTLTVSS
VL: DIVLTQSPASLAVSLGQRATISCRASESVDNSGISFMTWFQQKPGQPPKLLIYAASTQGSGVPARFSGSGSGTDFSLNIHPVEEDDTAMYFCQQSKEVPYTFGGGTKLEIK
notes: Mouse antibody purified from hybridoma; also called mAb003; 21B4
B7: 006 (mouse hybridoma antibody) (antibody, V domains shown)
VH: B6 VH with V2A, A16T, T31S, R40S, T55S, A72V, T77S, G97A
VL: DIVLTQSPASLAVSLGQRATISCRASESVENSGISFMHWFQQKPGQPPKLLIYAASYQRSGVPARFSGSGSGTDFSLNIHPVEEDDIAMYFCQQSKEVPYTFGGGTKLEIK
notes: Mouse antibody purified from hybridoma; also called mAb006; 27E8A9D5
B8: 018 (mouse hybridoma antibody) (antibody, V domains shown)
VH: EVKLVESGGGLVQPGGSLSLSCAVSGFTFTDYYMSWVRQPPGKALEWLGFIRNKANGYTTEYSASVKGRFTISRDNSQSILYLQMNALRAEDSATYYCARFDYYGSTYCFDYWGQGTTLTVSS
VL: DIVLTQSPASLAVSLGQRATISCRASQSVSTSSSSFMHWYQQKPGQPPKLLIKYASNLESGVPARFSGSGSGTDFTLNIHPVEEEDTATYYCQHTWEIPLTFGAGTKLELK
notes: Mouse antibody purified from hybridoma; also called mAb018; 16D9G2E8
B9: 48-H3L2 (antibody, V domains shown)
VH: B2 VH with K19R, T40A, K87R, L100M, Q109H
VL: B1 VL with N7T, E8P, N11L, F15P, S64P, E79K, K84E
notes: also called humanized Mab48 variant H3L2

Residue numbers refer to the chain shown, from its start.

T1 sequence (P35968 other isoform, or with tags, fused parts or gaps): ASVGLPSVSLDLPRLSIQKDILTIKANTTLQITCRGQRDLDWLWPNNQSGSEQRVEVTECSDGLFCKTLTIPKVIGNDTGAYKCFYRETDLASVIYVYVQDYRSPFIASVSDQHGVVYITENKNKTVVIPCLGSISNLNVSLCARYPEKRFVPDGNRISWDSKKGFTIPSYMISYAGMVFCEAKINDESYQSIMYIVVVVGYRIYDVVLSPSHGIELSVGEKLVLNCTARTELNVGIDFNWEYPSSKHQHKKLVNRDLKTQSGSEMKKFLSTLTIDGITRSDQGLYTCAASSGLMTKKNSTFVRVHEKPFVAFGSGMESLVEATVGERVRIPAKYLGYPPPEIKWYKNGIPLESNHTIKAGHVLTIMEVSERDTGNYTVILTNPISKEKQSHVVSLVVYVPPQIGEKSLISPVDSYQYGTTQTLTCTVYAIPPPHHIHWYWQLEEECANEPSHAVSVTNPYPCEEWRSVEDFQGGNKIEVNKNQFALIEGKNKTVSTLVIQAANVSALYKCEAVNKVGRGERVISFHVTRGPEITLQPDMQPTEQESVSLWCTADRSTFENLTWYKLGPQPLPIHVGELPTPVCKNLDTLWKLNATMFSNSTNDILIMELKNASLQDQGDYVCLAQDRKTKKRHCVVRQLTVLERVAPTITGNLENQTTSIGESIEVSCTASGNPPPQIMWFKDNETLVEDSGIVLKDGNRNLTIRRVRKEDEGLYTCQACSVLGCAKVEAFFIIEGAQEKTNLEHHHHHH
T2 sequence (P35968 20-1356 V297I/Q472H limits assumed): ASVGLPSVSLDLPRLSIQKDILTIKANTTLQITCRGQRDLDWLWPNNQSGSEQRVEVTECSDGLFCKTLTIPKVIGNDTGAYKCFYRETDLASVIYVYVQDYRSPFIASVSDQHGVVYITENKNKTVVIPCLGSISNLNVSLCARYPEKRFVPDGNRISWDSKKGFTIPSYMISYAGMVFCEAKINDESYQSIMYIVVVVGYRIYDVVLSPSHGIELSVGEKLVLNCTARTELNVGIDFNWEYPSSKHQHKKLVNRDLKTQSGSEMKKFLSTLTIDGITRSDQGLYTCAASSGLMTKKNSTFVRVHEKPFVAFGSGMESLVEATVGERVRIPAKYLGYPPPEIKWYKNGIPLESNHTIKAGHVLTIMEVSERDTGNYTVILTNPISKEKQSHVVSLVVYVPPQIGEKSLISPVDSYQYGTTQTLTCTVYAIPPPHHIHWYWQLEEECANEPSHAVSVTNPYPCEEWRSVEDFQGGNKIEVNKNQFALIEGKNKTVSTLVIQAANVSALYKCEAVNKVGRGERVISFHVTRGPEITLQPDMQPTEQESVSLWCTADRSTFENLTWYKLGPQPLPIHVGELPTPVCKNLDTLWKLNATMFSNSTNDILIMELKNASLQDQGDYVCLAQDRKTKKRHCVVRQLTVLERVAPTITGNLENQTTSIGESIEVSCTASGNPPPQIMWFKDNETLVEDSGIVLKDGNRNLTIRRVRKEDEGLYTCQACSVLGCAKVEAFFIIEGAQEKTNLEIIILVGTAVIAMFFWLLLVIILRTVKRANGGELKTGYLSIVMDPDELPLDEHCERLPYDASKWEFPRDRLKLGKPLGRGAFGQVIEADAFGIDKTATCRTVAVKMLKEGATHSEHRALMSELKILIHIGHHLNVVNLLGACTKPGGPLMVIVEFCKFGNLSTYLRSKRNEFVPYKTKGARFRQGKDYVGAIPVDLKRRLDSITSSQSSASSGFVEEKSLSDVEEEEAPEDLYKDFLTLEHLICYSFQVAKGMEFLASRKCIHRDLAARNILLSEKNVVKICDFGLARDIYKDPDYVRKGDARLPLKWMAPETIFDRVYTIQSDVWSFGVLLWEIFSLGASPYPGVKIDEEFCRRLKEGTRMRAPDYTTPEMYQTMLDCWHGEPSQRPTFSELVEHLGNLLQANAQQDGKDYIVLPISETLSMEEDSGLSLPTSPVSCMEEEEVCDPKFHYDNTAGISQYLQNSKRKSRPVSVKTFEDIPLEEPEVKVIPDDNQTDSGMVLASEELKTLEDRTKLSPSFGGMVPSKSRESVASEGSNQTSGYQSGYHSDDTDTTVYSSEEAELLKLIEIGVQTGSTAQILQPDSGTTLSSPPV

One test concerns the target T1, Recombinant Human VEGFR2/KDR Protein, His tag (hVEGFR2-his) (human, UniProt P35968 20-764).
T1 construct: Expressed in HEK293, bought from ACRO Biosystems; also called human VEGFR2-his; Human VEGFR2/KDR-His
As to the kind of experiment: SPR (Biacore), antibody captured by anti-Fc, antigen 2.5-80 nM. As to the method: A CM5 sensor chip was activated in each flow cell by 7-min injection (10 μl/min) of freshly prepared 1:1 50 mM N-hydroxysuccinimide (NHS): 200 mM 1-ethyl-3-(3-dimethylaminopropyl)-carbodiimide (EDC). Then anti-human Fc antibody (GE Healthcare) in a concentration of 10 μg/ml in 10 mM sodium acetate buffer PH 5.0 was injected onto the activated chip at 10 μl/min (HBS-EP running buffer: 10 mM HEPES, 150 mM NaCl, 3.4 mM EDTA, 0.005% surfactant P20, pH 7.4). The remaining active coupling sites were blocked by 7 min injection of 1M ethanolamine at 10 μl/min. The immobilization level of each flow cell is ˜9000RU. Antibodies were captured in FC2 by anti-human Fc IgG or anti-mouse Fc (GE Healthcare) to 200˜300RU. FC1 was used as the reference cell. Antigen was injected at varying concentrations (2.5 nM, 5 nM, 10 nM, 20 nM, 40 nM and 80 nM) after capture of antibody. The association time for antibody binding antigen is 180s. Surface Regeneration condition is 120s at 10 μl/min in Gly pH1.5. The signals with captured antibody subtracted from those without captured antibody were calculated with Biacore X100 evaluation software ver. 2.0 (Biacore).
On the technique in general: Surface plasmon resonance follows binding to a sensor surface in real time, without labels.
For B1, the Kd (in general, the constant that tells how readily two partners part at equilibrium) was 0.573 nM; the koff (usually the rate constant with which the complex falls apart) came out at 4.88e-05 s⁻¹; the on-rate constant (kon) (in general, the rate constant with which the complex forms) was 85100 M⁻¹ s⁻¹.
With B2, the Kd was 3.68 nM, the off-rate (koff) was determined as 0.000139 s⁻¹ and the kon turned out to be 37700 M⁻¹ s⁻¹.
As for B3, the Kd came to 1.14 nM, the off-rate constant (koff) was 5.15e-05 s⁻¹ and the on-rate constant (kon) was determined as 45100 M⁻¹ s⁻¹.
B4: the dissociation constant (Kd) was found to be 4.3 nM, the koff came to 0.000128 s⁻¹ and the kon amounted to 29700 M⁻¹ s⁻¹.
The matching figures for B5: 5.98 nM, 0.000336 s⁻¹ and 56200 M⁻¹ s⁻¹.
With B6, the equilibrium dissociation constant (Kd) was found to be 0.235 nM, the koff is 2.95e-05 s⁻¹ and the kon is 126000 M⁻¹ s⁻¹.
In the case of B7, the Kd came to 1.47 nM, the off-rate constant (koff) came out at 0.000186 s⁻¹ and the on-rate constant (kon) was determined as 127000 M⁻¹ s⁻¹.
As to B8, the dissociation constant (Kd) came out at 5.11 nM, the koff is 0.000452 s⁻¹ and the on-rate constant (kon) came to 88400 M⁻¹ s⁻¹.

A further test deals with T1, Recombinant Human VEGFR2/KDR Protein, …. As to the kind of experiment: competition ELISA: hVEGFR2-his coated (1 ug/ml), antibody titrated, then 0.3 ug/ml hVEGF-A added and bound VEGF-A detected; blocked ligand hVEGF-A. As to the method: High-binding clear polystyrene 96 well plates were coated with 100 μl/well of 1 μg/ml hVEGFR2-his overnight at 4° C. After washing and blocking, serial diluted antibodies (from 10 μg/ml to 0.0006 μg/ml) were added and incubate for 1 hour at RT. 0.3 μg/ml hVEGF-A (Acrobiosystem, Cat #VE5-H4210) were added and incubated for 2 hour at RT. Then 100 μl/well of 0.25 μg/ml Biotinylated Rabbit Anti-human VEGF-A (Peprotech, Cat #400-P10Bt) was then added for detecting bound VEGF-A. Then 100 μl/well of a solution of HRP conjugated Neutravidin antibody (Pierce, Cat #31001) and TMB were added sequentially. Finally, reaction was terminated using 0.64M H₂SO₄ and plates were read at 450 nm.
(In an ELISA, binding on a coated surface is turned into a signal by an enzyme label.)
For B1, the IC50 (usually the midpoint of a concentration-inhibition curve) was determined as 0.0629 µg/mL.
B5: the IC50 was 0.0434 µg/mL.

The target is the same in a further test. As to the kind of experiment: ELISA, hVEGFR2-his coated, anti-human Fc-HRP; antibody made in 293T cells. As to the method:
Same protocol of Example 4 except using HRP conjugated goat anti-human Fc antibody as secondary antibody. Binding to hVEGFR2-his and rhesus VEGFR2-his (Acrobiosystems, Cat #VE2-C52H3) were also analyzed head-to-head.
Same protocol of Example 9.
As for B2, the EC50 (in general, the concentration needed to bring the measured effect to its halfway point) came to 0.0706 µg/mL.
Still for that read-out and setting: the value for B3 was 0.0221 µg/mL; that for B9 was 0.0171 µg/mL; that for B4 was 0.0442 µg/mL.

Another test shares this target. The test can be described thus: ELISA, hVEGFR2-his coated. The protocol:
Same protocol of Example 2 antibody screening by ELISA assay. Briefly, 0.5 μg/ml hVEGFR2-his was coated and serially diluted purified antibodies would bind to coated antigen. Using HRP conjugated goat anti-mouse Fc antibody could detect binding signals of each antibody.
The hybridoma antibodies have similar affinity to human.
Turning to B1, the EC50 came to 0.0224 µg/mL.
Turning to B5, the concentration giving a half-maximal response (EC50) came out at 0.0168 µg/mL.
On the same count and under the same terms, the value for B6 was 0.00769 µg/mL; that for B7 was 0.0135 µg/mL; that for B8 was 0.0129 µg/mL.

A further test has the same target. As to the kind of experiment: competition ELISA on coated hVEGFR2-his: hybridoma antibody titrated against 100 ng/ml chimeric 002C, anti-human IgG Fc-HRP.
B1: the “IC50 (read off the curve)” value was around 0.1 µg/mL.
For B5, the “IC50 (read off the curve)” value is around 0.2 µg/mL.

A further test addresses T2, human VEGFR2 on HUVEC cells (human, UniProt P35968 20-1356).
T2 construct: also called hVEGFR2 on HUVEC
As to the kind of experiment: flow cytometry on HUVEC cells, percent shifted cells (Shift%), anti-mouse IgG-PE. As to the method: Log phase HUVEC cells were collected, counted and resuspended in FACS buffer (5% BSA+PBS). 2×10∧5 cells were added to each tube and then washed once with PBS (1500 rpm, 5 mins, RT). Then […] serial diluted VEGFR2 antibodies purified from hybridoma supernatant in FACS buffer were added into corresponding tubes and were incubated at 4° C. for 1 hr. The cells were then washed twice with 1 ml PBS, followed by adding 100 μl/tube of 2nd antibody (1:400 anti-mIgG (H+L)-PE, Cell signaling #8887) in FACS buffer. The cells were incubated at 4° C. for 0.5 hr and then washed twice with PBS, followed by resuspending cells in 600 μl PBS for each sample. The cells were then transferred into FACS tube and the bindings of the antibodies to the cells were detected using flow cytometry (BD Accuri C6) (see FIG. 3).
The percentage of positive binding cells was calculated and fit by Graphpad Prism Software.
Background: In flow cytometry, cells or beads pass a laser one at a time.
For B1, the EC50 worked out at 0.052 µg/mL.
Regarding B5, the concentration for a half-maximal effect (EC50) worked out at 0.0462 µg/mL.
